Test results published in the supplement of paper PMC12338614.
± gives the uncertainty stated by the source.

B1: library; numbered along this chain (parent)
chain: MEVVDPQQLGMFTEGELMSVGMDTFIHRIDSTEVIYQPRRKRAKLIGKYLMGDLLGEGSYGKVKEVLDSETLCRRAVKILKKKKLRRIPNGEANVKKEIQLLRRLRHKNVIQLVDVLYNEEKQKMYMVMEYCVCGMQEMLDSVPEKRFPVCQAHGYFCQLIDGLEYLHSQGIVHKDIKPGNLLLTTGGTLKISDLGVAEALHPFAADDTCRTSQGSPAFQPPEIANGLDTFSGFKVDIWSAGVTLYNITTGLYPFEGDNIYKLFENIGKGSYAIPGDCGPPLSDLLKGMLEYEPAKRFSIRQIRQHSWFRKKHPPAEAPVPIPPSPDTKDRWRSMTVVPYLEDLHGADEDEDLFDIEDDIIYTQDFTVPGQVPEEEASHNGQRRGLPKAVCMNGTEAAQLSTKSRAEGRAPNPARKACSASSKIRRLSACKQQ

Variants of: B1
Experiment: STK11 functional score (HeLa growth suppression), rescaled enrichment; synonymous median = 1, nonsense median = 0 (normalised score)
Details: with HeLa; variant type: missense
In short: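 Functional scores are post/pre-selection log ratios corrected to wild type, rescaled to synonymous and nonsense medians, merged over codons and replicate transfections, and given bootstrapped error. They come from POPCode libraries of codon-optimised STK11 integrated by Bxb1 at an AAVS1 landing pad in HeLa, three regions each transfected three times, with BFP-negative, mCherry-positive integrants sorted by FACS and tiled gDNA amplicons sequenced on NextSeq.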
MEVVDPQQLGMFTEGELMSVGMDTFIHRIDSTEVIYQPRRKRAKLIGKYLMGDLLGEGSYGKVKEVLDSETLCRRAVKILKKKKLRRIPNGEANVKKEIQLLRRLRHKNVIQLVDVLYNEEKQKMYMVMEYCVCGMQEMLDSVPEKYFPVCQAHGYFCQLIDGLEYLHSQGIVHKDIKPGNLLLTTGGTLKISDLGVAEALHPFAADDTCRTSQGSPAFQPPEIANGLDTFSGFKVDIWSAGVTLYNITTGLYPFEGDNIYKLFENIGKGSYAIPGDCGPPLSDLLKGMLEYEPAKRFSIRQIRQHSWFRKKHPPAEAPVPIPPSPDTKDRWRSMTVVPYLEDLHGADEDEDLFDIEDDIIYTQDFTVPGQVPEEEASHNGQRRGLPKAVCMNGTEAAQLSTKSRAEGRAPNPARKACSASSKIRRLSACKQQ [R147Y] gave an STK11 functional score of 1.47 ± 0.14.
With MEVVDPQQLGMFTEGELMSVGMDTFIHRIDSTEVIYQPRRKRAKLIGKYLMGDLLGEGSYGKVKEVLDSETLCRRAVKILKKKKLRRIPNGEANVKKEIQLLRRLRHKNVIQLVDVLYNEEKQKMYMVMEYCVCGMQEMLDSVPEKWFPVCQAHGYFCQLIDGLEYLHSQGIVHKDIKPGNLLLTTGGTLKISDLGVAEALHPFAADDTCRTSQGSPAFQPPEIANGLDTFSGFKVDIWSAGVTLYNITTGLYPFEGDNIYKLFENIGKGSYAIPGDCGPPLSDLLKGMLEYEPAKRFSIRQIRQHSWFRKKHPPAEAPVPIPPSPDTKDRWRSMTVVPYLEDLHGADEDEDLFDIEDDIIYTQDFTVPGQVPEEEASHNGQRRGLPKAVCMNGTEAAQLSTKSRAEGRAPNPARKACSASSKIRRLSACKQQ [R147W] the STK11 functional score was 0.777 ± 0.16.
Variant MEVVDPQQLGMFTEGELMSVGMDTFIHRIDSTEVIYQPRRKRAKLIGKYLMGDLLGEGSYGKVKEVLDSETLCRRAVKILKKKKLRRIPNGEANVKKEIQLLRRLRHKNVIQLVDVLYNEEKQKMYMVMEYCVCGMQEMLDSVPEKRAPVCQAHGYFCQLIDGLEYLHSQGIVHKDIKPGNLLLTTGGTLKISDLGVAEALHPFAADDTCRTSQGSPAFQPPEIANGLDTFSGFKVDIWSAGVTLYNITTGLYPFEGDNIYKLFENIGKGSYAIPGDCGPPLSDLLKGMLEYEPAKRFSIRQIRQHSWFRKKHPPAEAPVPIPPSPDTKDRWRSMTVVPYLEDLHGADEDEDLFDIEDDIIYTQDFTVPGQVPEEEASHNGQRRGLPKAVCMNGTEAAQLSTKSRAEGRAPNPARKACSASSKIRRLSACKQQ [F148A] has an STK11 functional score of 0.105 ± 0.081.
MEVVDPQQLGMFTEGELMSVGMDTFIHRIDSTEVIYQPRRKRAKLIGKYLMGDLLGEGSYGKVKEVLDSETLCRRAVKILKKKKLRRIPNGEANVKKEIQLLRRLRHKNVIQLVDVLYNEEKQKMYMVMEYCVCGMQEMLDSVPEKRMPVCQAHGYFCQLIDGLEYLHSQGIVHKDIKPGNLLLTTGGTLKISDLGVAEALHPFAADDTCRTSQGSPAFQPPEIANGLDTFSGFKVDIWSAGVTLYNITTGLYPFEGDNIYKLFENIGKGSYAIPGDCGPPLSDLLKGMLEYEPAKRFSIRQIRQHSWFRKKHPPAEAPVPIPPSPDTKDRWRSMTVVPYLEDLHGADEDEDLFDIEDDIIYTQDFTVPGQVPEEEASHNGQRRGLPKAVCMNGTEAAQLSTKSRAEGRAPNPARKACSASSKIRRLSACKQQ [F148M] gave an STK11 functional score of 1.3 ± 0.082.
Work on MEVVDPQQLGMFTEGELMSVGMDTFIHRIDSTEVIYQPRRKRAKLIGKYLMGDLLGEGSYGKVKEVLDSETLCRRAVKILKKKKLRRIPNGEANVKKEIQLLRRLRHKNVIQLVDVLYNEEKQKMYMVMEYCVCGMQEMLDSVPEKRDPVCQAHGYFCQLIDGLEYLHSQGIVHKDIKPGNLLLTTGGTLKISDLGVAEALHPFAADDTCRTSQGSPAFQPPEIANGLDTFSGFKVDIWSAGVTLYNITTGLYPFEGDNIYKLFENIGKGSYAIPGDCGPPLSDLLKGMLEYEPAKRFSIRQIRQHSWFRKKHPPAEAPVPIPPSPDTKDRWRSMTVVPYLEDLHGADEDEDLFDIEDDIIYTQDFTVPGQVPEEEASHNGQRRGLPKAVCMNGTEAAQLSTKSRAEGRAPNPARKACSASSKIRRLSACKQQ [F148D] yielded an STK11 functional score of -0.396 ± 0.083.
MEVVDPQQLGMFTEGELMSVGMDTFIHRIDSTEVIYQPRRKRAKLIGKYLMGDLLGEGSYGKVKEVLDSETLCRRAVKILKKKKLRRIPNGEANVKKEIQLLRRLRHKNVIQLVDVLYNEEKQKMYMVMEYCVCGMQEMLDSVPEKRCPVCQAHGYFCQLIDGLEYLHSQGIVHKDIKPGNLLLTTGGTLKISDLGVAEALHPFAADDTCRTSQGSPAFQPPEIANGLDTFSGFKVDIWSAGVTLYNITTGLYPFEGDNIYKLFENIGKGSYAIPGDCGPPLSDLLKGMLEYEPAKRFSIRQIRQHSWFRKKHPPAEAPVPIPPSPDTKDRWRSMTVVPYLEDLHGADEDEDLFDIEDDIIYTQDFTVPGQVPEEEASHNGQRRGLPKAVCMNGTEAAQLSTKSRAEGRAPNPARKACSASSKIRRLSACKQQ [F148C] gave an STK11 functional score of 0.493 ± 0.087.
MEVVDPQQLGMFTEGELMSVGMDTFIHRIDSTEVIYQPRRKRAKLIGKYLMGDLLGEGSYGKVKEVLDSETLCRRAVKILKKKKLRRIPNGEANVKKEIQLLRRLRHKNVIQLVDVLYNEEKQKMYMVMEYCVCGMQEMLDSVPEKREPVCQAHGYFCQLIDGLEYLHSQGIVHKDIKPGNLLLTTGGTLKISDLGVAEALHPFAADDTCRTSQGSPAFQPPEIANGLDTFSGFKVDIWSAGVTLYNITTGLYPFEGDNIYKLFENIGKGSYAIPGDCGPPLSDLLKGMLEYEPAKRFSIRQIRQHSWFRKKHPPAEAPVPIPPSPDTKDRWRSMTVVPYLEDLHGADEDEDLFDIEDDIIYTQDFTVPGQVPEEEASHNGQRRGLPKAVCMNGTEAAQLSTKSRAEGRAPNPARKACSASSKIRRLSACKQQ [F148E] gave an STK11 functional score of 0.147 ± 0.17.
Variant MEVVDPQQLGMFTEGELMSVGMDTFIHRIDSTEVIYQPRRKRAKLIGKYLMGDLLGEGSYGKVKEVLDSETLCRRAVKILKKKKLRRIPNGEANVKKEIQLLRRLRHKNVIQLVDVLYNEEKQKMYMVMEYCVCGMQEMLDSVPEKRGPVCQAHGYFCQLIDGLEYLHSQGIVHKDIKPGNLLLTTGGTLKISDLGVAEALHPFAADDTCRTSQGSPAFQPPEIANGLDTFSGFKVDIWSAGVTLYNITTGLYPFEGDNIYKLFENIGKGSYAIPGDCGPPLSDLLKGMLEYEPAKRFSIRQIRQHSWFRKKHPPAEAPVPIPPSPDTKDRWRSMTVVPYLEDLHGADEDEDLFDIEDDIIYTQDFTVPGQVPEEEASHNGQRRGLPKAVCMNGTEAAQLSTKSRAEGRAPNPARKACSASSKIRRLSACKQQ [F148G] has an STK11 functional score of -0.0254 ± 0.081.
In the case of MEVVDPQQLGMFTEGELMSVGMDTFIHRIDSTEVIYQPRRKRAKLIGKYLMGDLLGEGSYGKVKEVLDSETLCRRAVKILKKKKLRRIPNGEANVKKEIQLLRRLRHKNVIQLVDVLYNEEKQKMYMVMEYCVCGMQEMLDSVPEKRLPVCQAHGYFCQLIDGLEYLHSQGIVHKDIKPGNLLLTTGGTLKISDLGVAEALHPFAADDTCRTSQGSPAFQPPEIANGLDTFSGFKVDIWSAGVTLYNITTGLYPFEGDNIYKLFENIGKGSYAIPGDCGPPLSDLLKGMLEYEPAKRFSIRQIRQHSWFRKKHPPAEAPVPIPPSPDTKDRWRSMTVVPYLEDLHGADEDEDLFDIEDDIIYTQDFTVPGQVPEEEASHNGQRRGLPKAVCMNGTEAAQLSTKSRAEGRAPNPARKACSASSKIRRLSACKQQ [F148L], the STK11 functional score is reported as 0.829 ± 0.095.
MEVVDPQQLGMFTEGELMSVGMDTFIHRIDSTEVIYQPRRKRAKLIGKYLMGDLLGEGSYGKVKEVLDSETLCRRAVKILKKKKLRRIPNGEANVKKEIQLLRRLRHKNVIQLVDVLYNEEKQKMYMVMEYCVCGMQEMLDSVPEKRHPVCQAHGYFCQLIDGLEYLHSQGIVHKDIKPGNLLLTTGGTLKISDLGVAEALHPFAADDTCRTSQGSPAFQPPEIANGLDTFSGFKVDIWSAGVTLYNITTGLYPFEGDNIYKLFENIGKGSYAIPGDCGPPLSDLLKGMLEYEPAKRFSIRQIRQHSWFRKKHPPAEAPVPIPPSPDTKDRWRSMTVVPYLEDLHGADEDEDLFDIEDDIIYTQDFTVPGQVPEEEASHNGQRRGLPKAVCMNGTEAAQLSTKSRAEGRAPNPARKACSASSKIRRLSACKQQ [F148H] showed an STK11 functional score of -0.00697 ± 0.084.
With MEVVDPQQLGMFTEGELMSVGMDTFIHRIDSTEVIYQPRRKRAKLIGKYLMGDLLGEGSYGKVKEVLDSETLCRRAVKILKKKKLRRIPNGEANVKKEIQLLRRLRHKNVIQLVDVLYNEEKQKMYMVMEYCVCGMQEMLDSVPEKRNPVCQAHGYFCQLIDGLEYLHSQGIVHKDIKPGNLLLTTGGTLKISDLGVAEALHPFAADDTCRTSQGSPAFQPPEIANGLDTFSGFKVDIWSAGVTLYNITTGLYPFEGDNIYKLFENIGKGSYAIPGDCGPPLSDLLKGMLEYEPAKRFSIRQIRQHSWFRKKHPPAEAPVPIPPSPDTKDRWRSMTVVPYLEDLHGADEDEDLFDIEDDIIYTQDFTVPGQVPEEEASHNGQRRGLPKAVCMNGTEAAQLSTKSRAEGRAPNPARKACSASSKIRRLSACKQQ [F148N] the STK11 functional score was 0.0347 ± 0.095.
MEVVDPQQLGMFTEGELMSVGMDTFIHRIDSTEVIYQPRRKRAKLIGKYLMGDLLGEGSYGKVKEVLDSETLCRRAVKILKKKKLRRIPNGEANVKKEIQLLRRLRHKNVIQLVDVLYNEEKQKMYMVMEYCVCGMQEMLDSVPEKRKPVCQAHGYFCQLIDGLEYLHSQGIVHKDIKPGNLLLTTGGTLKISDLGVAEALHPFAADDTCRTSQGSPAFQPPEIANGLDTFSGFKVDIWSAGVTLYNITTGLYPFEGDNIYKLFENIGKGSYAIPGDCGPPLSDLLKGMLEYEPAKRFSIRQIRQHSWFRKKHPPAEAPVPIPPSPDTKDRWRSMTVVPYLEDLHGADEDEDLFDIEDDIIYTQDFTVPGQVPEEEASHNGQRRGLPKAVCMNGTEAAQLSTKSRAEGRAPNPARKACSASSKIRRLSACKQQ [F148K] showed an STK11 functional score of -0.033 ± 0.18.
Variant MEVVDPQQLGMFTEGELMSVGMDTFIHRIDSTEVIYQPRRKRAKLIGKYLMGDLLGEGSYGKVKEVLDSETLCRRAVKILKKKKLRRIPNGEANVKKEIQLLRRLRHKNVIQLVDVLYNEEKQKMYMVMEYCVCGMQEMLDSVPEKRIPVCQAHGYFCQLIDGLEYLHSQGIVHKDIKPGNLLLTTGGTLKISDLGVAEALHPFAADDTCRTSQGSPAFQPPEIANGLDTFSGFKVDIWSAGVTLYNITTGLYPFEGDNIYKLFENIGKGSYAIPGDCGPPLSDLLKGMLEYEPAKRFSIRQIRQHSWFRKKHPPAEAPVPIPPSPDTKDRWRSMTVVPYLEDLHGADEDEDLFDIEDDIIYTQDFTVPGQVPEEEASHNGQRRGLPKAVCMNGTEAAQLSTKSRAEGRAPNPARKACSASSKIRRLSACKQQ [F148I] has an STK11 functional score of 1.31 ± 0.41.
For MEVVDPQQLGMFTEGELMSVGMDTFIHRIDSTEVIYQPRRKRAKLIGKYLMGDLLGEGSYGKVKEVLDSETLCRRAVKILKKKKLRRIPNGEANVKKEIQLLRRLRHKNVIQLVDVLYNEEKQKMYMVMEYCVCGMQEMLDSVPEKRPPVCQAHGYFCQLIDGLEYLHSQGIVHKDIKPGNLLLTTGGTLKISDLGVAEALHPFAADDTCRTSQGSPAFQPPEIANGLDTFSGFKVDIWSAGVTLYNITTGLYPFEGDNIYKLFENIGKGSYAIPGDCGPPLSDLLKGMLEYEPAKRFSIRQIRQHSWFRKKHPPAEAPVPIPPSPDTKDRWRSMTVVPYLEDLHGADEDEDLFDIEDDIIYTQDFTVPGQVPEEEASHNGQRRGLPKAVCMNGTEAAQLSTKSRAEGRAPNPARKACSASSKIRRLSACKQQ [F148P], the STK11 functional score was -0.111 ± 0.086.
